The target of the assay is GST-fusion protein containing the UBA domain of Dsk2p (residues 328–373) (UniProt P48510). Briefly: pull-down.
Chain of UniProt P48510 (P48510 328-373): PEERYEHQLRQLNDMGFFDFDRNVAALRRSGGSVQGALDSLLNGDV

“endogenous GLUT4 in 3T3-L1 adipocytes (ubiquitinated) (from UniProt P14142 1-509) (natural protein)” came in with a percent of total cellular GLUT4 pulled down by GST–UBA (taken as ubiquitinated) of 0.1%.

The record behind these values is paper PMC3152195.
